Source: article PMC10192352 (2023)

Legend:
[1] = target: T1, NPNA8 peptide, biotinylated (Plasmodium falciparum, biotin (position not given)); assay: BLI; 2:1 binding model
T1 chain: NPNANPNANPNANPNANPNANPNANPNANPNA

[2] = target: T1, NPNA8 peptide, biotinylated; assay: BLI; 2:1 binding model

B1: L9 Fab (Fab, V domains shown)
VH: QVKLVESGGGVVQPGRSLRLSCEASGFIFSTYGMHWVRQAPGKGLEWVAVIWFDGSNIYYADSVKGRFTISRDNSKNTVFMQMDSLRAEDTAVYYCHRNFYDGSGPFDYWGQGTLVTVSS
VL: DIQMTQSPSTLSASVGDRVTITCRASQFISRWLAWYQQKPGKAPKLLIYKASSLESGVPSRFSGSGSETHFTLTISSLQPDDVATYYCQEYTSYGRTFGQGTKVEIK
koff [1]: 0.024 s⁻¹
Kd [2]: 6.26 µM
